The DeepSol protein solubility set

Test: soluble on expression in E. coli; label from the status in PepcDB or PDB records

Soluble on expression in E. coli, not soluble:
MKINYQELANNIKLWAKELGFQKVGICDVDLSQHEAALEQWLEAGYHGSMDWMARHGVMRARPDELHPGTIRVISARMDYLPPKAGFASNLKDPNQAYISRYALGRDYHKLIRNQLKKLGQKIEEEVEQLGYRPFVDSAPILERPLAEKAGLGWTGKHSLLLDKNAGSWFFLGELLVDIPLPVDTPVENQCGKCTACISSCPTNAILENGVIDARRCISYLTIENSGIIPEEFRSLMGNRIYGCDDCQLVCPWNREAEITQQADFHRRSSLGNSDLISLFSWDESTFLKNMEGSAIRRIGHIQWLRNLSIAMGNAPHSEAIISALQDRLGLDENLDIHIQWAIKQQSLVITSNRKEQRLIRIIEKGLPRDA
MSAETYVMEIDGGPGDLHCMKCLKICNYLKDSYCCKKTKNMTLPQKKAESAFLMICLQRNTIELMVTALLANKKIIDSKGNCAFCRNKKQHEEEKWCAGRTKLQLFLHRIDKDELKVEEYLEKYLEIKTRNRMEQLDIVQARIVREMKAVAIAQGKSEEEVEHILAKQGRKARRMQRSEYKHAEEDNKGVRQRLAAKLVAKKSEIIERFCLAQRTVFVKADCPNVYGRTTTHISYLLE
MAHHHHHHMSILCTISGQTPEEPVVSKTGYVFEKRLIEKHILNYGICPVSGEVLTLQDLYPLKNEQVVKPRPITASSIPGLLSILQTEWDAIISEMFTLRTHVNDIRNQLTHSLYQYDAATRVIAKLLKEKNDYKEEVKKLRNQILSIKSGNDLNEFEVGLSEDLLNEMQEVAKNLLMTRKKRNIEHVSSAEQWKEVTNTNEFDVHSAAIPGVTCLSLDINELKYSYYDDHKNHSFFSGGMDGNVYYVSLEQSKVLAKLQGHLKKVTAIVAHPKYSLCISGANDKTVRIWKGDVETNEFATAHVIAKHKDQITSLALHPMENYFVSSSKDNVWILNDLETSRSIKICKDTPSPFRQLAIHPDGIMLGIGCEDSNIHIFDMKSQEYKASLSGHTSHVSYISFSENGYYLASCSKDKTVKLWDLRKAQCFQTIDVEELPRSICFDFSGKYLSLAAGNDVHVFNFEAKTKAVLVNTLSAHTDAVTQTCFGSRTAYLLSSSMDKTVKVWS
MGSDKIHHHHHHMILRKKKSLNAGPINGTGEGVAHSKRWYVALVRMHHEKKVSEHLDKMGIENFVPVQQELHQWSDRRKLVTSVLLPMMVFVHADPKERMEVLSFSTVSRYMVMRGESSPAVIPDEQMARFRFMLDYSEESISMNSSPLARGEKVRVIKGPLTGLVGELVNVDGRSKIAVRLNMLGCACVDMPVGYVEPIMAAV
MFSYHELITIESVARLGSFSQAADELHKVPSAISYTIKSVEDRLTVVLFTRLHRRVELTAAGTYFVDQARKLLKDMEEIRFNTQRVANGWQQSVSVALDNVVRENSVNQLVRDFYATFPDIELQLTMEVFNGVWDALMTGRADIGIGATATIPIGGDFSYRPMGELAWDFIVSINHPLASFEHDIPNEELVKYPAICLEDTSQILPKRSTWLLDNQRRLIVPNWHSAEQCFIDGLGVGVIPNHRAKRLLETGQVISKKIEHHIAPSPCCLAWNNNNQSVAIQWLLDYLGDSDKLNSEWLKEF

Soluble on expression in E. coli, soluble:
MAHHHHHHMGNDEIFEDLFISDTEPEELYEELGPIGVGNYGSVIKARNRQTQAIAAIKLVLLVDKDERDFVQKEISILKKCVHPNIVRYYGAHKSLSKLWIVMEYCEGGSVDMVYKVLRHPLPENLIAYVCRQVLLGLQYLHANRKIHRDIKGGNILLTRDGDVKLADFGVSTELSHSLSRRNTFVGTLLWMSPEAILELDYDEKADLWSLGITLIEMAEGAPPYIDTHPARALFMIPKVDPPTLHDKDRWSPQMALFLKRLLIKDYRLRPTATAMLNDPFVAPEKIGTKEQMKAVIDEVLAKKEAMSPQRLHGETNSSATFVERTSTDTDGEDGVTNDTCTSGRAPTGAKVPANTSPVAMEAIDITGAHLFFHDGTLLPLPMLSTHDIGFDELGLGREGIGPFAKPVPDAESLLVPPEQRSTALHGSGGLAYTMHVTQTLKSMLYYHKQLPFFREVTDTEAIKSKELQLKYGSILKSIYRL
MSAALVAQQVATLREQGFVVVRNFASPPVRQALRELALQHLAQTVDPVEYEADLKYPGAPSSRLAAGGQTVRRLLDAYGRDQRFRDWATQAAIGAFLRAYFQDTPVLSTVHHNCIMTKHPAFGSLTGWHQDIRYWSFSDDDLVSCWLALGDERADNGGLYFVPGSHTASFMPEQYDARKFFRDDLPQNQEWIGRAVCPELQAGDVVFFHCRTLHAARQNATDTVKLSLVHTYHPASCHPLPGTRSAGSPGVPLPLEHHHHHH
MAHHHHHHMFHGFPDVQIAPRDTVISEEFHLHDKEGRMGTLLQPMAQRMRISFSALTCLGSYAQNATCHYALFGRLCGVQLNETIEVTNVLPPVINPRPPEDETPEQREKRLLAQQREERQMYERMGKMFFKEELDSYHVGYFAICSAYTNAPYSVRTVQQLAQLALDGNPSVLVVYDPFRTSLMGKLYLRAFVPTREYVEFYTRLTDKRNILRENRLMRECNVGKGGVLREVKVEVDVDEYQLLCLSGFNVAPLSSTCRTLHSEVMTDYMAALIESVRHNADELSRGLHSESYFSQKEESYGPLGQRIDTLLKLMQLREQTQHLESLCDGVLLNTSLLRDL
MSLTPVLDKIDSDVSAATDRLLELLRIPSISTDPAYKADCDAAADWLVKDLNSIGIKAEKRETPGHPMVVGHVGEENTKGPHLLFYGHYDVQPVDPLNLWNTPPFEPQLEETPNGTVIRGRGASDDKGQLMTFVEACRAWQAVHGTLPCRITFFFEGEEESGSPSLIPFLEAAKEELSADIALICDTSMVARGVPSVASQLRGMMKDEFTLIGPKIDLHSGHYGGPGLNPLREISHIIASFHDPDTGAVAVEGFYEGVPEVPADILRQWEGCGFDEKDYLSNAGYTEAHGEKKYSTLEQQWARPTLEINGLWGGYQGAGTKTVIPSEAHCKITCRLVGDMDPADLRQKIRKHVEDRLPTDCTVKWDLDLDGAPAYVIDTTRPEFEAARGALTEEWNREAVFSGMGGSIPVAGYFKSILGMDAMLIGFANEDDAIHSPNEKYDLESFHKGIRSWARVLDALSKA
MESVYLFSSGTLKRKANTICLETESGRKYIPVENVMDIKVFGEVDLNKRFLEFLSQKRIPIHFFNREGYYVGTFYPREYLNSGFLILKQAEHYINQEKRMLIAREIVSRSFQNMVDFLKKRKVRADSLTRYKKKAEEASNVSELMGIEGNAREEYYSMIDSLVSDERFRIEKRTRRPPKNFANTLISFGNSLLYTTVLSLIYQTHLDPRIGYLHETNFRRFSLNLDIAELFKPAVVDRLFLNLVNTRQINEKHFDEISEGLMLNDEGKSLFVKNYEQALRETVFHKKLNRYVSMRSLIKMELHKLEKHLIGEQVFGSEE
MSSIRVVALDWRYEEILHALGITPVGIVEIGKSKEPQTLKGELEGVTSVGQAKQPNLEVIQSLEPDLILASPTRQAAIMDQLKEIAPTHAYGDTSYTEVLDAMDDIATKVGAEDKAKEVRTRIESKIAQAKNKVEPGTRTALIGWSKNTLYTWVKDSFAGSLLTAAGYEYGYDGEKSAIESKTDVAELTGDKLPEMKLDVMYLYNDIEGFRSSPYADVVSNIVDVEQDTWSRSRGPLAAEAMLDQIINSLEHHHHHH
MAMAVSGAVLSGLGSSFLTGGKRGATALASGVGTGAQRVGRKTLIVAAAAAQPKKSWIPAVKGGGNFLDPEWLDGSLPGDFGFDPLGLGKDPAFLKWYREAELIHGRWAMAAVLGIFVGQAWSGVAWFEAGAQPDAIAPFSFGSLLGTQLLLMGWVESKRWVDFFNPDSQSVEWATPWSKTAENFANYTGDQGYPGGRFFDPLGLAGKNRDGVYEPDFEKLERLKLAEIKHSRLAMVAMLIFYFEAGQGKTPLGALGL
MKAVGFLLLLTILTLAYAKKSGDVTELQIGVKYKPQKCDLQAHKGDKIKVHYRGKLTDGTVFDSSFERGDPIEFELGTGQVIPGWDQGLLGACVGEKRKLKIPSKLGYGDNGSPPKIPGGATLIFDTELVAVNGEPSSEAKSKNEL
